Data from US20210267930A1, “MODIFIED ANTIBODY-ALBUMIN NANOPARTICLE COMPLEXES FOR CANCER TREATMENT” (Mayo Foundation for Medical Education and Research, priority 2016, published 2021).

Assays:
[1] = biological target: CD20 (membrane bound, on Daudi cells) (human) (UniProt P11836); assay: blocking assay by flow cytometry: Daudi cells pre-treated with ABX, then stained with labelled anti-human CD20
[2] = biological target: CD20 (membrane bound, on Daudi cells) (human) (UniProt P11836); assay: blocking assay by flow cytometry: Daudi cells pre-treated with ABX, washed, stained with PE-mouse anti-human CD20
[3] = biological target: CD20 (membrane bound, on Daudi cells) (human) (UniProt P11836); assay: flow cytometry on Daudi cells, ABX labelled with Alexa fluor 488
[4] = biological target: CD20 (membrane bound, on Daudi cells) (human) (UniProt P11836); assay: flow cytometry, Daudi cells stained with Alexa-fluor 488 AR160 alone (middle panel, upper right quadrant)
[5] = biological target: CD20 (membrane bound, on Daudi cells) (human) (UniProt P11836); assay: flow cytometry, Daudi cells stained with Alexa-fluor 488 AR160 and PE anti-human CD19 (right panel, upper left quadrant)
[6] = biological target: CD20 (membrane bound, on Daudi cells) (human) (UniProt P11836); assay: flow cytometry, Daudi cells stained with Alexa-fluor 488 AR160 and PE anti-human CD19 (right panel, upper right quadrant)
[7] = biological target: CD20 (membrane bound, on Daudi cells) (human) (UniProt P11836); assay: blocking assay by flow cytometry: Daudi cells pre-treated with AR160, washed, stained with PE-mouse anti-human CD20 (the blocked antibody)
[8] = biological target: CD20 (membrane bound, on Daudi cells) (human) (UniProt P11836); assay: blocking assay by flow cytometry: Daudi cells pre-treated with lab-made AR160, then stained with labelled anti-human CD20 (the blocked antibody)
[9] = biological target: CD20 (membrane bound, on Daudi cells) (human) (UniProt P11836); assay: blocking assay by flow cytometry: Daudi cells pre-treated with pharmacy-made AR160 batch 1, then stained with labelled anti-human CD20 (the blocked antibody)
[10] = tested on: antibody complexation with ABX (bevacizumab); assay: Peptide competition assay on nanoparticle formation with bevacizumab; conditions: 10-fold molar excess of peptide
Description: Peptides were added at a 10-fold molar excess compared to antibody. Diameter was measured using a Malvern Nanosizer at a 1:200 dilution.
A similar experiment was performed using bevacizumab (FIG. 14B).

[11] = tested on: rituximab, trastuzumab, bevacizumab, and muromonab; assay: Biacore surface plasmon resonance, albumin peptide library against antibodies; format: binding; conditions: peptides at 50-1.25 μg/mL in HBS running buffer
Description: (§1) An albumin peptide library was constructed with 18 amino acid peptides, each containing a 6 amino acid overlap, and each albumin peptide was run against rituximab fixed on a CMS chip. Peptides were suspended to 5-10 mg/mL in HBS-EP plus running buffer. Water insoluble peptides were dissolved in 10% DMSO (Sigma-Aldrich, St. Louis, Mo.). Rituximab was immobilized onto Biacore CMS (GE Healthcare, Chicago, Ill.) chips via amine coupling. Biacore X-100 (GE Healthcare, Chicago, Ill.) was used to screen the albumin peptide libraries over immobilized rituximab. Peptides were screened from 1-50 μg/mL with an exposure time of 120 seconds. Biacore X100 software was used to determine binding kinetics.
Peptides were run at 50, 25, 10, 5, 2.5, 1.25 μg/mL in HBS running buffer. Dissociation constants were determined by Biacore Evaluation Software. […] Diana, F. J., Veronich, K. & Kapoor, A. L. Binding of nonsteroidal anti-inflammatory agents and their effect on binding of racemic warfarin and its enantiomers to human serum albumin. J Pharm Sci 78, 195-199 (1989); Sudlow, G., Birkett, D. J. & Wade, D. N. The characterization of two specific drug binding sites on human serum albumin. Mol Pharmacol 11, 824-832 (1975).

[12] = biological target: T1, ABRAXANE® (ABX) (Homo sapiens, UniProt P02768); assay: Binding of antibody to ABX, dissociation constant
T1 construct: purchased Celgene, Summit, N.J

[13] = biological target: CD20 (membrane bound, on Daudi cells) (human) (UniProt P11836); assay: flow cytometry on Daudi cells (negative control)
[14] = biological target: CD20 (membrane bound, on Daudi cells) (human) (UniProt P11836); assay: flow cytometry of Daudi cells, isotype control (negative control)
[15] = biological target: T2, HSA peptide 4 (Homo sapiens, UniProt P02768); assay: Biacore surface plasmon resonance, antibody binding to HSA peptide 4
T2 construct: An albumin peptide library was constructed with 18 amino acid peptides
Description: as §1
(§2) The sequence of the variable region of the heavy chain where the binding site is located is provided in FIG. 13F for both bevacizumab (SEQ ID NO.: 1) and rituximab (SEQ ID NO.: 2). The 19-AA region of interest is underlined for bevacizumab (SEQ ID NO.: 8—[…]) and rituximab (SEQ ID NO.: 10—[…]), and share about 80% identity. FIG. 13G provides the sequences from each antibody that bind HSA.

[16] = biological target: HSA peptide 40 (Homo sapiens, UniProt P02768); assay: Biacore surface plasmon resonance, antibody binding to HSA peptide 40
Description: as §1, §2

[17] = biological target: full HSA protein (Homo sapiens, UniProt P02768); assay: Biacore surface plasmon resonance, antibody peptide binding to HSA
Excerpt: FIG. 13B represents binding of bevacizumab variable peptide 1 (SEQ ID NO.: 7) to HSA.
as §2

[18] = biological target: T3, CD20 (Homo sapiens, UniProt P11836); assay: Blocking of PE-mouse anti-human CD20 binding to CD20+ Daudi cells (flow cytometry); format: cell-based; conditions: Daudi cells pre-incubated with test article
T3 construct: host or cells: Daudi
T3 sequence (P11836 1-297): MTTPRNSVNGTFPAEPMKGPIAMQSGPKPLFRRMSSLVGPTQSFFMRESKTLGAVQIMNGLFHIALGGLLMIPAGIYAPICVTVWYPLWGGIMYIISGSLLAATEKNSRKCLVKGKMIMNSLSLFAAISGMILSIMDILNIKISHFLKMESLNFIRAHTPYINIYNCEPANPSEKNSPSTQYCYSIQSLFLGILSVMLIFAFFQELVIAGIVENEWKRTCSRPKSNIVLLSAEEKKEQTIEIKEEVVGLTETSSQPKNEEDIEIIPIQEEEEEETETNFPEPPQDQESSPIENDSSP
Description: After incubation, the cells were washed and stained with PE-mouse anti-human CD20 and enumerated by flow cytometry.

[19] = tested on: CD20+ Daudi cells; assay: In vitro toxicity assay, EdU proliferation of Daudi cells; format: cell-based, human; conditions: rituximab 0-200 μg/mL overnight
Description: The level of proliferation was determined by staining cells with FITC labeled anti-EdU. The proliferation index was calculated by normalization to the untreated positive control.
Cell proliferation was measured with EdU, a thymidine analog, that was detected with a FITC conjugated anti-EdU and enumerated by flow cytometry.
The human B-cell lymphoma line, Daudi, (ATCC Manassa, Va.) were cultured in RPMI with 1% penicillin, streptomycin and glutamine (PSG) and 10% FBS. Cells were harvested and plated at 0.2×10^6 cells per well in 24 well plates. […] To measure proliferation, the Click-iT EdU (Molecular Probes, Eugene, Oreg.) kit was utilized. […] The cells were permeabilized with 1% saponin and intercalated EdU was labeled with a FITC-conjugated antibody. The proliferation index was determined by dividing the FITC positive cells from each treatment by the maximum proliferation of untreated EdU labeled cells.

[20] = tested on: Daudi human lymphoma cells; assay: Daudi human lymphoma xenograft tumor efficacy; format: in vivo, athymic nude mice; conditions: intravenous
Description: To test tumor efficacy, 5×10^6 Daudi human lymphoma cells were implanted into the right flank of athymic nude mice (Harlan Sprague Dawley, Indianapolis, Ind.). […] Tumor size was monitored 2-3 times/week and tumor volume was calculated with the following equation: (length*width^2)/2. Mice were sacrificed when the tumor size equaled 10% of the mouse body weight, or about 2500 mm^3. The day 10 percent change from baseline was calculated as follows: [(tumor size on treatment day-tumor size on day 10)/tumor size on treatment day]*100. Kaplan Meier curves were generated and median survival was calculated using GraphPad Prism software (GraphPad Software, Inc, La Jolla, Calif.).

[21] = biological target: T4, human serum albumin (HSA) (human, UniProt P02768 25-609); assay: SPR (Biacore) of antibody variable-region peptides with full HSA
T4 construct: also called full HSA protein

ABRAXANE® (albumin-bound paclitaxel nanoparticles) (from UniProt P02768 25-609)
% cells in the CD20+ gate after pre-treatment [1]: 82.9% | % cells in the CD20+ gate after pre-treatment [2]: 82.9%

AR160 (rituximab-albumin-paclitaxel nanoparticle complex) (from UniProt P02768 25-609)
% positive cells [3]: 75% | % of cells in the AR160+ CD19+ quadrant [4]: 15.8% | % of cells in the AR160+ CD19- quadrant [5]: 3.95% | % of cells in the AR160+ CD19+ quadrant [6]: 73.8% | % cells in the CD20+ gate after pre-treatment [7]: 6.6% | % cells in the CD20+ gate after pre-treatment [8]: 6.6% | % cells in the CD20+ gate after pre-treatment [9]: 8.2%

Bev Peptide 1: bevacizumab peptide, amino acids 111-125, SEQ ID NO.: 7 (DTAVYYCAKYPHYYGSSHWYF)
effect on particle size increase indicative of antibody complexation with ABX [10]: prevent the 30 nm increase in particle size

HSA peptide 40: HSA amino acids 455-472, SEQ ID NO.: 5; maps to the Sudlow II site
binding to the antibodies [11]: found to bind the antibodies | effect on particle size increase indicative of antibody complexation with ABX [10]: prevent the 30 nm increase in particle size

bevacizumab
binding affinity to ABX [12]: bind with a high affinity

isotype control antibody
% positive cells [13]: 6.2% | % cells in the CD20+ gate [14]: 6.2%

muromonab
binding to HSA peptide 4 [15]: bound | binding to HSA peptide 40 [16]: bound

muromonab peptide: peptide from muromonab corresponding to the albumin-binding region; probably SEQ ID NO.: 12 (DDHYCLDYWGQGTTLTVSSA)
binding to the full HSA protein [17]: did not bind

rituximab
binding affinity to ABX [12]: bind with a high affinity | dissociation constant for ABX [12]: in the picomolar range | inhibition of subsequent binding of anti-human CD20 antibody [18]: prohibit subsequent binding of the anti-human CD20 antibody | toxicity to Daudi cells [19]: not toxic | median survival ([20]; RIT 12 mg/kg): 8 days | mice having responses by day 10 ([20]; RIT 12 mg/kg): 0% | percentage of mice alive at day 10 ([20]; RIT 12 mg/kg): 12% | median survival ([20]; RIT 18 mg/kg): 10.5 days | mice having responses by day 10 ([20]; RIT 18 mg/kg): 0% | percentage of mice alive at day 10 ([20]; RIT 18 mg/kg): 38%

B1: muromonab peptide (peptide)
peptide: DDHYCLDYWGQGTTLTVSSA
binding result [21]: no binding
